Source: the nanobody polyreactivity screen of Harvey et al. (2022)

Test: yeast display, Sf9 membrane polyspecificity reagent, FACS + sequencing; frameworks hold sequencing errors
Summary of the method: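 A nanobody's polyreactivity label depends on the gate it was sorted from. Yeast display cells were stained with 10% biotinylated, detergent-solubilized Sf9 membrane reagent for 1 hour at 4 °C, enriched on streptavidin microbeads and sorted by FACS. The low and high (top ~1%) gates were set on anti-HA fluorescence for expression and streptavidin fluorescence for reagent binding.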

| Sequence | polyreactivity (PSR sort gate) |
| --- | --- |
| QVQLVESGGGLVQAGGSLRLSCAASGLTYKYYAMGWYRQAPGKERELVARISRGGNTNYADSVKGRFTISRDNAKNTVYLQMNSVKPEDTAVFYCAATVRVYDYWGQGTQVSVSS | high polyreactivity |
| QVHLVESGGALVQAGASLRLSCAASGFTYGLYSMGWYRQAPGKERELVAVISSSGGSTYYADSVKGRFTISRDNAKNTVYLQMNRLKPEDTAVYYCAAEWLDYKFDVSYDYWGQCTQVTVSS | low polyreactivity |
| QDQLVESGGGLVQAGGSLRLSCAPSGRIFTTYGMGWYSQAPGKERELVAAISRSGGSTYYADSVKGRFTISRDNAKNTVYLQMNSLKPEDTAVYYCAAVPTSNSFRSSFYYWGQGTQVTVSS | high polyreactivity |
| QVQIVESGGGLVQAGGSLRISCAASGRTIHLYDMGWYRQAPGKERELVAAITWSSGRTYYADSVKGRVTISRDNAKNTVYVQMNILKPEDTEVYYCAADVWGGLLPGYDYWGQGTQVTVSS | high polyreactivity |
| QVKLVESGGGLVHAGGSLRLSCAASGFIFYYYAMGWYRQAPGKERELVAAITSSGGSTYYADSVKGRFTISRDNAKNTVYLQMNSLKPEDTAVYYCNARYVSASRNRGTSRYDYWGQGTQVTVSS | high polyreactivity |
| QVHLVESGGGLVQAGGSLRLSSAASGRIFYNYTMRWYRQAPGKERELVAAITRSGSSTYADSVKGRFTISRDNGKNTVYLQMNSLKQEDTAVYYCAGEYIRRYDYWGQGTQETVSS | low polyreactivity |
| QVQLVESGGGLVQAGGSLRLSCSASGFIFYSYAMGWSRPAPGKEREFVAAISRSGGITYYADSVKGRFTISRDNAKNTVYLQMNSLKPEDTAVYYCAKVGRAVSSIKDMDSWGQGTQVTVSS | high polyreactivity |
| QVQLVESGGGLVQAGGSLRLSCAASGRTFGYYAMGWYRPEHGTERELVAAITRTGGSTHYADSVKGRFTISRDNAKNTVYLQMNSLKPEDTAVYYCARDYRYTIPYDYWGQGTQVTVSS | low polyreactivity |
| QVQLVESGGGIVQAGGSLRLSCAASGSTFGVYAMGWYRQAPGKERDLVSVIRRGGGTDYADSVKGRFTISRDNAKNTVYLQMNSLNPEVTAVYYCAATVVRSGYLTLEMDYWGQGTQVTVSS | low polyreactivity |
| QVQLVESGGGLDQAGGSLRLSCAASGNTFHPYAMGWYRQAPGKERELVAAITKSGGSTYYADSVKGRFTISRDNAKKTVYLQMNSLKPEDTAVYYCNADDGVTEYDYWGQGTQVTVSS | low polyreactivity |
| QVQLVESGGGLVQAGGSLRLSCAASGRTFGVYAMGWYRQAPGKERELVAAIRWSGGGTYYADSVKGRFTISPDNAKNTVYLQMNSLKPEDTAVYYCAATFQNSPYTRYTDMYYWGQGTQVTVSS | low polyreactivity |
| QVQLVESGGGLVQAGGTLRLSGAASGRTLRRYAMGWYRQAPGKARELVATISGRGGSTYYADSVKGRFTISRDNAKNTVYLQMNSLKPEDTAVYYCAADSVLSKYDYWGQGTQVTVSS | high polyreactivity |
| QDQRVESAGGLVQAGGSLRLSCAASGNIFDPNAMGGYRQAPGKERELVAAIRRGGSTNYADSVKGRFTISRDNAKNTVYLQMISLKPEDTAVYDCDKSRVSFTDLEGYYWGQGTLVTVSS | low polyreactivity |
| QVQHVESGGGVVQAGGSLRLSCAASGSIFSRYTMGWYRQAPGKERELVAAITSSGGRTYYADSVKGRFTISRDNAKNTVYLQMNSLKPEDTSVYYFDARIPKQQGYGYWGQGTQVTVSS | high polyreactivity |
| QVQLVESGGGLVQAGGSLRLSCAASGSIFNVNTMGWYRQAPGKERELVAAISYSGGSTYYADSVKGRFTISRDTAKNTVYLQMNSLKPEDTAVYYCAAESYIEYYLKYDYWGQGTQVTVSS | low polyreactivity |
| QVQLVESGGGLVQAGGSLRLSCAASGSIFKFYTMGWYIQAPGKERELVATITSGGRTNYADSVKGRFTISPDNAKNTVYLQMNTLKPEDTAVYYCAATWLRVKYRFKGYDYWGQGTQVTVSS | high polyreactivity |
| QVQLVESGGGLVQAGGSLRLSCAASGFTIAPDAMGWYRPAPGKERELVADISYSGGSKYYADSVKGRFTISRDTAKNTVYLQMNSLKPEDTAVYYCNAVIWWYWGRSYAYNYWGQGTQVTVSS | high polyreactivity |
| QVQLVESRGGLVQAGGSLRLSCDASGFIFTLYAMGWYRQAPGKERELVASIRGSGGNTYYADSVKGRFTISRDNAKNTVYLQMNSLKPEDTAVYYCAARTYRRPYSSWGQGTQVTVSS | high polyreactivity |
| QVQLVESGGGLVQAGGSLRLSCAASGSILKNNAMGWYRLAPGKERELVAAITYSSGSTYYADSVKGRFTISRDNAKNTVYLQMNSLKPEDTAVYYCAAVYRYRYSFSGGYYWGQGTQVTVSS | low polyreactivity |
| QVQLVESCGCLVQAGCSLRLSCAASGSTFQGYAMGWYRQAPGKERELVAAITIRGTRTYYADSVKGRFTISRDNAKNTVYLQMNSLKPEDTAVYYCAAYDYRHLEDKYDYWGQGTQVTVSS | high polyreactivity |
| QVQLVESGGGLVQAGGSLRFSCAASGRIFSIYAMGWYRQAPGKERELVAAISKRGGSTSYADSVKGRFTISRDNAKNTVYLQMNSLKPEDTAVYYCNARGWIPARGWDDYYWGQGTQVTVSS | high polyreactivity |
| QDQLVETGGGLVQAGGSLRLSCAASGSTFAYYTMGWYRPAPGKERELVAAISSGGITYYAYSVKGRFTISRDNAKNTVYLQMNSLKPEDTAVYYCAAYRTHGPPRAIRFDYWGQGTQVTVSS | high polyreactivity |

| Sequence | polyreactivity (PSR sort gate) |
| --- | --- |
| QVQLVESGGGLVQAGGSLRLSCAASGSIFATYGMGWYRQAPGKERELVAAITSSGGSTYYADSVKGRFTISRDNAKNTVYLQMNSLKPEDTAVYYCAADSYIIWYGTVVSYGEDSWGQGTQVTVSS | low polyreactivity |
| QVQLVESGGGLVQAGGSLRLSCAASGFIFSLYAMGWYRQAPGKERELVAAITRSGGSTYYADSVKGRFTISRDNAKNTVYLQMNSLKPEDTAVYYCAASRGRGGYGFDYWGQGTQVTVSS | high polyreactivity |
| QVQLVESGGGLVQAGGSLRLSCAASGRIFPFYAMVWYRQAPGKERELVAAITTSGGSTYYADSVKGRFTISRDNAKNTVYLQMNRLKPEDTAVYYCNKRLGLELAPWEMNYWGQGTQVTVSS | low polyreactivity |
| QVQLVESGGGLVQAGGSLRLSCAASGSIFAANTMGWYRQAPGKERELVAAITGSGASTYYADSVKGRFTISRDNAKNTVYLQMNSLKPEDTAVYYCAARRYTSYYKDGWYAYYYWGQGTQVTVSS | high polyreactivity |
| QVQLVESGGGLVQAGGSLRLSCAASGSISYDYAMGWYRQAPGKERELVASITSRGGSTYADSVKGRFTISRDNAKNTVYLQMNSLKPEDTAVYYCAADAIPNLIFISLPFGLDYWGQGTQVTVSS | low polyreactivity |
| QVQLVESGGGLVQAGGSLRLSCAASGRNFGVYAMGWYRQAPGKERELVARIRGSGASTYYADSVKGRFTISRDNAKNTVYLQMNSLKPEDTAVYYCAAVTVAGYDYWGQGTQVTVSS | high polyreactivity |
| QVQLVESGGGLVQAGGSLRLSCAASGLTLSYYAMGWYRQAPGKERELVAAISSGGSTYYADSVKGRFTISRDNAKNTVYLQMNSLKPEDTAVYYCAAQWWRLYWEYYYWGQGTQVTVSS | low polyreactivity |
| QVQLVESGGGLVQARGSLRLSCAASGSIFYRNAMGWYRQAPGKETELVARIDRGGITHYADSVKGRFTISRDNAMNTVYLQMNSLKPEDTAVYYCAARKGYWYPTGHGARRYDYWGQGTQVTVSS | high polyreactivity |
| QDQLVESGLGIVQAGGSLRLSCAASGYTFSQYSMGWYRQAPGKERELVAAIDSGSKTKYADSVKGRFTISRDNAKNTVYLQMNSLKPEDSAVYYCAADDSYRSIGGDYWGQGTQVTVSS | low polyreactivity |
| QVQLVESGGGLVQAGGSLRLSCAASGSTLRGYTMGWYRQAPGKERELVAAISWSGASTYYADSVKGRFTISRDNAKNTVYLQMNSLKPEDTAVYYCNRAGRYVREYTVDYWGQGTQVTVSS | high polyreactivity |
| QVQLVESGGGLVQAGGSLRLSCASSGITFRYYAMGWYRQAPGKERELVAAISDGGSTNYADSVKGRFTISRDNAKNTVYLQMNSLKPEDTAVYYCAADYRYLFDYWGQGTQVTVSS | high polyreactivity |
| QVQLEESGGGLVQAGGSLRLSCAASGRIFYFNTKGWYRQAPGKERELVAAISRSGTSTYYADSVKGRFTISRDFAKNTVYLQMNSLKPEDTAVYYCAARFGVKRGQYDYWGQGTQVTVSS | high polyreactivity |
| QVQLVESGGGLVQAGGSLRLSCAASGYIFVRNAMGWYRQAPGKERELVAAISGSGGSTYYADSVKGRFTISRDNAKNTVYLQMNSLKPVDTAVYYCAADYATVTWRGIAYDYWGQGTQVTVSS | low polyreactivity |
| QVQLVESGGGLVQAGGSLRLSCAASGFTFDHYAMGWYRQAPGKERELVARITGTGDSTYYADSVKGRFTISRDNAKNTVYLQRNSLKPEDTAVDYCNADRRYDFYDGYGYWGQGTQVTVSS | low polyreactivity |
| QVQLVESGGGLVQAGGSLRLSCAASGSTFDYNAMGWYRQAPGKERELVAAIRWSGDTTYYADSVKGRFTISRDNAKNTVYLQRNSLKPEDTAVYYCANVPIYRYGVWAMNYWGQGTQVTVSS | high polyreactivity |
| QVQLVESGGGLVQAGGSLRLSCAASGSIFRYYVTGWYRQAPGKERELVATISSSGGRTYYADSVKGRFTISRDNAKNTVYLQMNSLKPEDTAVYYCNARTSPYSGYSGRYYWGQGTQVTVSS | high polyreactivity |
| QVHLVESGGGLVQAGGSLRLTCAASGFTYPGNAMGWYRQAPGKERELVATINWSGTSTYYADSVKGRFTISRDYAKNTVYLQMNSLKPEDTAVYYCAVDTGGPGYRFDYWGQGTQVTVSS | high polyreactivity |
| QVQLVESGGGLVQAGGSLRLSCAASGRTFYSYAMGWYRQAPGKERELVAAISRAGGTYYADSVKGRFTISRDNAKNTVYLQMNSLKPEDTAVYYCAARQAVYGLRSDFYYWGQGTQVTVSS | high polyreactivity |
| QVQLVESGGGLVQAGGSLRLSCAASGRIFSRNTMGWYRQATGKEREFVAAISQSGGRTYYADSVKGRFTISRDNAKNNVYLQMNSLKPEDTAVYYCAARSRGYDIRYGYWGQGTQVTVSS | high polyreactivity |
| QVQLVETGGGLVQAGGSLRLSCAASGRIFRGNTMGWYRQAPGKERELVAAISWRGGRTYYADSVKWRFTISRDNAKNTVYLQMISLKPEDTAVYYCNAVYFQTGVYGYGDYDSWGQGTQVTVSS | low polyreactivity |
| QVQLVESGGGLVQAGGRLRLSCAASGRIFGINVMGWYRQAPGKERELVARITGRGGRTYYADSVKGRFTISRDNAKNTVYLQMNSLKPEDTAVYYCAADASYEAYDYWGQGTQVTVSS | high polyreactivity |
